# Reference: publication PMC3539437, “Solution Structures of PPARγ2/RXRα Complexes” (PPAR Research, 2012)
# T1: HsPPARγ LBD (203–477) (human, UniProt P37231-2 203-477)
# T1 construct: Rosiglitazone was added in a 2-fold excess; also called PPAR LBD
# T1 sequence (looked up): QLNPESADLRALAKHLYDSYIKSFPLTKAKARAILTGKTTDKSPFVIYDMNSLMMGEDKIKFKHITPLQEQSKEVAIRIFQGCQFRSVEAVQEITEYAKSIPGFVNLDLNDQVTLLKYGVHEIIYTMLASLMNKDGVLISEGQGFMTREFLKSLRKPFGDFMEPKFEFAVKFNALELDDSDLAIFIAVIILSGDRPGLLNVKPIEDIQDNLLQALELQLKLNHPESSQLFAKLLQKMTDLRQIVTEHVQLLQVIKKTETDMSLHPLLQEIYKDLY
# T2: HsPPARγΔNTD (135–505) (human, UniProt P37231 135-505)
# T2 construct: PPARγ2 without its N-terminal domain, human, residues 135-505 (PPARγ2 has 505 residues); Rosiglitazone was added in a 2-fold excess; also called PPARγ2ΔNTD
# T2 sequence (looked up): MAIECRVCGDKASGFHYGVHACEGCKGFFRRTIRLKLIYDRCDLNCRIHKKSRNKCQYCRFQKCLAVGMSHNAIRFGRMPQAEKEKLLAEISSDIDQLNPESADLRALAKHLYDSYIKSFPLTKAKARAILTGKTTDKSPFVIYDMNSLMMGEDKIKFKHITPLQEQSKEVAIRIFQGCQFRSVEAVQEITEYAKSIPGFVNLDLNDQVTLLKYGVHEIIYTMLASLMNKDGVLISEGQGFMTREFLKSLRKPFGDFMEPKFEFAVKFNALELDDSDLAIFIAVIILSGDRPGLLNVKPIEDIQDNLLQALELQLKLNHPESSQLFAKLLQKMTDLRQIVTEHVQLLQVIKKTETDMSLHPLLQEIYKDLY
# T3: Full-length HsPPARγ2 (1–505) (human, UniProt P37231-1 1-505)
# T3 construct: PPARγ2, human, residues 1-505; Rosiglitazone was added in a 2-fold excess; also called PPARg2; full length PPARγ
# T3 sequence (looked up): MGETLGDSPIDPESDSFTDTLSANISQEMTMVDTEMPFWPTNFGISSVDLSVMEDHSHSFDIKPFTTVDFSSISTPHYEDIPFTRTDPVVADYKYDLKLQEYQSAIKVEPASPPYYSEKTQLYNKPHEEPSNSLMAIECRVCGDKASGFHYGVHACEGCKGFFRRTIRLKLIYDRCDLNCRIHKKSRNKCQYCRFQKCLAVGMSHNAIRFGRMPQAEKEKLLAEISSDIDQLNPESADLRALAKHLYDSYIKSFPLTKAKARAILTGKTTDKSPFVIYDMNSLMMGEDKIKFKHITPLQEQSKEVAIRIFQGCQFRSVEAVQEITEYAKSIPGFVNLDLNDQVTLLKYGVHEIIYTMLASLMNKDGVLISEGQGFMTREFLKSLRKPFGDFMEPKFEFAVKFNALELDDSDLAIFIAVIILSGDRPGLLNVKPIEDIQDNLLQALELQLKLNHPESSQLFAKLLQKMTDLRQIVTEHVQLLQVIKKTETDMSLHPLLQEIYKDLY
# T4: PPARγΔNTD/RXRαΔNTD heterodimer (human, UniProt P37231 135-505; P19793 130-462)
# T4 construct: PPARγ2 without its N-terminal domain, human, residues 135-505; Retinoid X receptor alpha without its N-terminal domain, human, residues 130-462; nontagged; also called PPARγ2ΔNTD/RXRαΔNTD; PPARγΔNTD/RXRΔNTD
# T4 sequence (looked up) 1: T2 sequence (looked up)
# T4 sequence (looked up) 2: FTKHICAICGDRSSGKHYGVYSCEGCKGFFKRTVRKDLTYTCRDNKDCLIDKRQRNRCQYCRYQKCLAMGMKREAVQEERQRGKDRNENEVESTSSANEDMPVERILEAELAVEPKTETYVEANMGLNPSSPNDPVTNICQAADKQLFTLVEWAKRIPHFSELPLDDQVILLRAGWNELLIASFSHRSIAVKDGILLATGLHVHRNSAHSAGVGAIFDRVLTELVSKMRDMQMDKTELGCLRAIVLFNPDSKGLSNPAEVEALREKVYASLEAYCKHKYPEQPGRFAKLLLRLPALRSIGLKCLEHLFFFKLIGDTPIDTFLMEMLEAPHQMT
# T5: PPARγ/RXRα LBDs heterodimer (human, UniProt P37231-2 203-477; P19793 223-462)
# T5 construct: nontagged; Ligands (CD3254 for RXR and rosiglitazone for PPAR) were added in a 2-fold excess; also called PPAR/RXR LBDs; LBD dimer
# T5 sequence (looked up) 1: T1 sequence (looked up)
# T5 sequence (looked up) 2: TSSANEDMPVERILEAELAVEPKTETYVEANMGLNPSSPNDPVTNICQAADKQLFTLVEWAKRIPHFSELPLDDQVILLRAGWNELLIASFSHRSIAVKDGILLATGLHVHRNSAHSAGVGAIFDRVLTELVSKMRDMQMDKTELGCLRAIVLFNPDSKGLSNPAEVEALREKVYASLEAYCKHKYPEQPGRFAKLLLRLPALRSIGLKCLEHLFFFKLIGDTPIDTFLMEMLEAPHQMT
# T6: Full-length PPARγ2/RXRα heterodimer (human, UniProt P37231 1-505; P19793 1-462)
# T6 construct: PPARγ2, human, residues 1-505; Retinoid X receptor alpha, human, residues 1-462; also called integral PPARγ/RXRα; full-length heterodimer
# T6 sequence (looked up) 1: T3 sequence (looked up)
# T6 sequence (looked up) 2: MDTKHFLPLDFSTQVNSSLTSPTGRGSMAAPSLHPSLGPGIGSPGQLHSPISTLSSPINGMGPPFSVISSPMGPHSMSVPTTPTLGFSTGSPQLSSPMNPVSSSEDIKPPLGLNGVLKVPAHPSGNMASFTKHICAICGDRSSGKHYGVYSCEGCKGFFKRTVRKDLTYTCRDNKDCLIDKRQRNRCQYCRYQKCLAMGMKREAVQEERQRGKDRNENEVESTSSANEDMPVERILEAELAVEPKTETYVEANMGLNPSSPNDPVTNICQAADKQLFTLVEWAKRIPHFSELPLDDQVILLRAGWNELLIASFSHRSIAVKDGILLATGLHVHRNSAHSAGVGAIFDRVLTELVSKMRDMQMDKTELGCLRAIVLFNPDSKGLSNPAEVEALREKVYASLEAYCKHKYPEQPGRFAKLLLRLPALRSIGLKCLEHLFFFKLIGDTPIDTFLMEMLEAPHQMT
# B1: HsRXRα LBD (223–462) (domain or fragment, human, UniProt P19793 223-462, looked up)
# chain: T5 sequence (looked up) 2
# notes: nontagged (pACYC plasmid); CD3254 was added in a 2-fold excess; also called RXR LBD
# B2: HsRXRαΔNTD (130–462) (domain or fragment, human, UniProt P19793 130-462, looked up)
# chain: T4 sequence (looked up) 2
# notes: Retinoid X receptor alpha without its N-terminal domain, human, residues 130-462; nontagged (pACYC plasmid); CD3254 was added in a 2-fold excess; also called RXRΔNTD
# B3: HsTIF-2 (632–772), TIF2 receptor interacting domain (RID) (domain or fragment, human, UniProt Q15596 632-772, looked up)
# chain: LHDSKGQTKLLQLLTTKSDQMEPSPLASSLSDTNKDSTGSLPGSGSTHGTSLKEKHKILHRLLQDSSSPVDLAKLTAEATGKDLSQESSSTAPGSEVTIKQEPVSPKKKENALLRYLLDKDDTKDIGLPEITPKLERLDSK
# notes: TIF2 (NCoA2, p160 member), human, residues 632-772: 15 kDa fragment with the three LXXLL motifs; also called TIF2 RID; TIF-2 RID
# Tests used:
# [1] = target: T1, HsPPARγ LBD (203–477); assay: co-purification (affinity chromatography, gel filtration); heterodimer partners coexpressed (E. coli BL21 (DE3) or Sf9) and copurified in two steps; settings: partners not purified
# [2] = target: T2, HsPPARγΔNTD (135–505); assay: as above; settings: partners not purified
# [3] = target: T3, Full-length HsPPARγ2 (1–505); assay: SAXS; complexes bound to Cyp4A1 PPRE DNA; Tris 20 mM pH 7.5, NaCl 75 mM, KCl 75 mM, MgSO4 4 mM, Glycerol 5%, Chaps 2 mM; ligands CD3254 and rosiglitazone; settings: both partners purified
# [4] = target: T4, PPARγΔNTD/RXRαΔNTD heterodimer; assay: AUC; sedimentation equilibrium at 12,000 rpm, fitted with Sedphat; TIF2 RID with PPARγΔNTD/RXRαΔNTD/DNA; settings: both partners purified
# [5] = target: T5, PPARγ/RXRα LBDs heterodimer; assay: native MS; ESI-MS under nondenaturing conditions, 200 mM ammonium acetate (pH 8.0 in the methods, pH 7.4 in the legend), capillary exit 80 V; settings: both partners purified
# [6] = target: T6, Full-length PPARγ2/RXRα heterodimer; assay: SAXS; complexes bound to Cyp4A1 PPRE DNA; Tris 20 mM pH 7.5, NaCl 75 mM, KCl 75 mM, MgSO4 4 mM, Glycerol 5%, Chaps 2 mM; ligands CD3254 and rosiglitazone; settings: both partners purified
binder,measurement,setting,value
B1,binding result,[1],binds
B2,binding result,[2],binds
same,binding result,[3],binds
B3,stoichiometry N,[4],1 TIF2 RID per heterodimer
same,stoichiometry N,[5],1 TIF2 RID per heterodimer
same,stoichiometry N,[6],1 coactivator per receptor dimer
